B1: GFP-ARL13B N-terminus (1-298 aa), insect cell purified (domain or fragment, human, UniProt Q3SXY8-1 1-298, looked up)
chain: MFSLMASCCGWFKRWREPVRKVTLLMVGLDNAGKTATAKGIQGEYPEDVAPTVGFSKINLRQGKFEVTIFDLGGGIRIRGIWKNYYAESYGVIFVVDSSDEERMEETKEAMSEMLRHPRISGKPILVLANKQDKEGALGEADVIECLSLEKLVNEHKCLCQIEPCSAISGYGKKIDKSIKKGLYWLLHVIARDFDALNERIQKETTEQRALEEQEKQERAERVRKLREERKQNEQEQAELDGTSGLAELDPEPTNPFQPIASVIIENEGKLEREKKNQKMEKDSDGCHLKHKMEHEQI
B2: GFP-ARL13B full length, insect cell purified (natural protein)
chain: not shown

Biological target: T1, GST-TULP3 full length (human, UniProt O75386-1 1-442)
T1 sequence (looked up): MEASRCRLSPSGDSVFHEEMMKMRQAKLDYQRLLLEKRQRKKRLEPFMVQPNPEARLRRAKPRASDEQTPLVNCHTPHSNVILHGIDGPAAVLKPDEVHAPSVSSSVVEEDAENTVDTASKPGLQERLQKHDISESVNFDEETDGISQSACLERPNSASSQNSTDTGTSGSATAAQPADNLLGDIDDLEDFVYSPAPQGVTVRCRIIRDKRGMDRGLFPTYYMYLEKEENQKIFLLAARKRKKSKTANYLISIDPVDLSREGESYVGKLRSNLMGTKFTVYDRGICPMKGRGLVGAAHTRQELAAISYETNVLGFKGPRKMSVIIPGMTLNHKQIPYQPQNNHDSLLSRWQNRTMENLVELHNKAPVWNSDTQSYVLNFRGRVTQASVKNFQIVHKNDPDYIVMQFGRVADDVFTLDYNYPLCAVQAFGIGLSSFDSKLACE
Experiment: pull-down

| Binder | binding result |
| --- | --- |
| B1 | binds |
| B2 | binds |
